Test results reported in patent US20240209086A1 (PETMEDIX, published 2024).

How the values were obtained:
[1] = target: T1, canine CD3εδ-Fc (heterodimer of canine CD3ε-hIgG4PE-knob and canine CD3δ-hIgG4PE-hole) (canine); assay: SPR (Biacore 8K), CD3εδ-Fc amine-coupled to CM5 chip, multi-cycle kinetics, antibody 600-7.4 nM
T1 construct: also called CD3εδ-Fc fusion protein; copies: 1 + 1
Protocol: Binding affinity of shortlisted candidates, described in Example 3, were assessed using Biacore 8K (Cytiva). Briefly, a CM5 Sensor Chip (Cytiva) was docked onto a Biacore 8K, equilibrated for 30′ at RT and then Running Buffer (10 mM HEPES pH6 150 mM NaCl 3 mM EDTA and 0.005% Tween20) was applied to the SPR chip surface. Canine CD3εδ-Fc was diluted into 10 mM acetate buffer pH4.5 and immobilised using standard amine coupling reaction. Antibodies dilutions were prepared by diluting the shortlisted candidates from 600 nM to 7.4 nM (5 concentrations with 1:3 dilutions) in running buffer and kinetics was assessed using multi-cycle kinetics method (120 sec association-300 sec dissociation). Kinetics and/or Affinity quantification was performed using Biacore Insight following standard analyses methods.

[2] = target: canine CD3 on canine T cells (canine PBMC) (canine, UniProt P27597 22-202); assay: cell-based or functional assay
Chain of canine CD3 on canine T cells (canine PBMC) (P27597 22-202 limits assumed, chain 1 of 3): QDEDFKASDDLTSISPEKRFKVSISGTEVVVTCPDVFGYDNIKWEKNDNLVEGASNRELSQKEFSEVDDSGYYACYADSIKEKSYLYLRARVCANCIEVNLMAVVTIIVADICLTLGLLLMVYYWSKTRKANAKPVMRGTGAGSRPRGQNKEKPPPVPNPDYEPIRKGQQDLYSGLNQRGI
Chain of canine CD3 on canine T cells (canine PBMC) (chain, as listed by the source limits assumed, chain 2 of 3): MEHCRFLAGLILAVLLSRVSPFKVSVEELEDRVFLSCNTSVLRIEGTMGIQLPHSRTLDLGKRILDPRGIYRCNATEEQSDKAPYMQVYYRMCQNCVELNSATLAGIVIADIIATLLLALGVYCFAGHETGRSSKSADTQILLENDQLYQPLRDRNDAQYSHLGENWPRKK
Chain of canine CD3 on canine T cells (canine PBMC) (chain, as listed by the source limits assumed, chain 3 of 3): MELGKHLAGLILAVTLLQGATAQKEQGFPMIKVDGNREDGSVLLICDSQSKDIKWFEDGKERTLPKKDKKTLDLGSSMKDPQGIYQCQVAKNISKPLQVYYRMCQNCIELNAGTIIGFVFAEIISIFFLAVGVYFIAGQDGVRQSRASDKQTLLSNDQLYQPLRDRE

T1 sequence (chain, as listed by the source mutant limits assumed): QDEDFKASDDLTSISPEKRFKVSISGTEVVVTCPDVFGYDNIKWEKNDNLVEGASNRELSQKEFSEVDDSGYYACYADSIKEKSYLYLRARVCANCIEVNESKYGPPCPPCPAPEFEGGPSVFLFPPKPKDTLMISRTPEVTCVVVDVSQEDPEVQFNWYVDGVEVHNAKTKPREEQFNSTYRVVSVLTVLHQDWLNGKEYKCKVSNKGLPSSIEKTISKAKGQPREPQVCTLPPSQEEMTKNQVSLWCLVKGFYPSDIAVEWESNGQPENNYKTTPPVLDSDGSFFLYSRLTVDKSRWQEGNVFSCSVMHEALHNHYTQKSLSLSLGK

Binder	Kd [1]	EC50 (M) of killing potency, bispecific killing of hCD20+GFP MDCK II cells by canine PBMC [2]
PMX170 in bispecific format (canine CD3 arm PMX170 x Rituximab arm, human IgG4PE knob-in-hole) (bispecific antibody) heavy 1: EVQLVESGGDLVKPGGSLRLSCVASGFTFSSYHMSWVRQAPGKGLQWVAYSNSGGSRTSYADAVKGRFTISRDNAKNTLYLQMSSLRAEDTAVYYCASEGGGGRYGFKDYGMDYWGHGTSLFVSSASTKGPSVFPLAPCSRSTSESTAALGCLVKDYFPEPVTVSWNSGALTSGVHTFPAVLQSSGLYSLSSVVTVPSSSLGTKTYTCNVDHKPSNTKVDKRVESKYGPPCPPCPAPEFEGGPSVFLFPPKPKDTLMISRTPEVTCVVVDVSQEDPEVQFNWYVDGVEVHNAKTKPREEQFNSTYRVVSVLTVLHQDWLNGKEYKCKVSNKGLPSSIEKTISKAKGQPREPQVYTLPPSQCEMTKNQVSLSCAVKGFYPSDIAVEWESNGQPENNYKTTPPVLDSDGSFFLVSRLTVDKSRWQEGNVFSCSVMHEALHNRFTQKSLSLSLGK light 1: SYVLTQLPSKNVTLKQPAHITCGGDNIGSKSVHWYQQKLGQAPVLIIYYDSSRPTGIPERFSGANSGNTATLTISGALAEDEADYYCQVWDSSAKAWVFGEGTQLTVLRTVAAPSVFIFPPSDEQLKSGTASVVCLLNNFYPREAKVQWKVDNALQSGNSQESVTEQDSKDSTYSLSSTLTLSKADYEKHKVYACEVTHQGLSSPVTKSFNRGEC heavy 2: not shown light 2: QIVLSQSPAILSASPGEKVTMTCRASSSVSYIHWFQQKPGSSPKPWIYATSNLASGVPVRFSGSGSGTSYSLTISRVEAEDAATYYCQQWTSNPPTFGGGTKLEIKRTVAAPSVFIFPPSDEQLKSGTASVVCLLNNFYPREAKVQWKVDNALQSGNSQESVTEQDSKDSTYSLSSTLTLSKADYEKHKVYACEVTHQGLSSPVTKSFNRGEC	304 nM	3.32e-09 M
PMX189 in bispecific format (canine CD3 arm PMX189 x Rituximab arm, human IgG4PE knob-in-hole) (bispecific antibody) heavy 1: ELTLQESGPGLVKPSQTLSLTCVVSGGSVTNNYYWNWIRQRPGRGLEWMGYWTGSTKYNPAFQGRISITADTANNQFSLHLNSMSSEDTAVYYCARDRDRRVPHAYGYWGQGTLVTVSSASTKGPSVFPLAPCSRSTSESTAALGCLVKDYFPEPVTVSWNSGALTSGVHTFPAVLQSSGLYSLSSVVTVPSSSLGTKTYTCNVDHKPSNTKVDKRVESKYGPPCPPCPAPEFEGGPSVFLFPPKPKDTLMISRTPEVTCVVVDVSQEDPEVQFNWYVDGVEVHNAKTKPREEQFNSTYRVVSVLTVLHQDWLNGKEYKCKVSNKGLPSSIEKTISKAKGQPREPQVYTLPPSQCEMTKNQVSLSCAVKGFYPSDIAVEWESNGQPENNYKTTPPVLDSDGSFFLVSRLTVDKSRWQEGNVFSCSVMHEALHNRFTQKSLSLSLGK light 1: SYVLTQLPSKNVTLKQPAHITCGGDNIGSKSVHWYQQKLGQAPVLIIYYDSSRPTGIPERFSGANSGNTATLTISGALAEDEADYYCQVWDSSAKASVFGGGTHLTVLRTVAAPSVFIFPPSDEQLKSGTASVVCLLNNFYPREAKVQWKVDNALQSGNSQESVTEQDSKDSTYSLSSTLTLSKADYEKHKVYACEVTHQGLSSPVTKSFNRGEC heavy 2: not shown light 2: QIVLSQSPAILSASPGEKVTMTCRASSSVSYIHWFQQKPGSSPKPWIYATSNLASGVPVRFSGSGSGTSYSLTISRVEAEDAATYYCQQWTSNPPTFGGGTKLEIKRTVAAPSVFIFPPSDEQLKSGTASVVCLLNNFYPREAKVQWKVDNALQSGNSQESVTEQDSKDSTYSLSSTLTLSKADYEKHKVYACEVTHQGLSSPVTKSFNRGEC	177 nM	1.1e-08 M
PMX186 in bispecific format (canine CD3 arm PMX186 x Rituximab arm, human IgG4PE knob-in-hole) (bispecific antibody) heavy 1: EVKLVESGGDLVKPGGSLRLSCVASGVTFSRYYMSWVRQAPGKGLQWVAYINSGGSTTSYADAVKGRFTISRDNAKNTLYLQMNSLRAEDTAVYYCASEGVGEIYGYKDFGMDYWGHGTSLFVSSASTKGPSVFPLAPCSRSTSESTAALGCLVKDYFPEPVTVSWNSGALTSGVHTFPAVLQSSGLYSLSSVVTVPSSSLGTKTYTCNVDHKPSNTKVDKRVESKYGPPCPPCPAPEFEGGPSVFLFPPKPKDTLMISRTPEVTCVVVDVSQEDPEVQFNWYVDGVEVHNAKTKPREEQFNSTYRVVSVLTVLHQDWLNGKEYKCKVSNKGLPSSIEKTISKAKGQPREPQVYTLPPSQCEMTKNQVSLSCAVKGFYPSDIAVEWESNGQPENNYKTTPPVLDSDGSFFLVSRLTVDKSRWQEGNVFSCSVMHEALHNRFTQKSLSLSLGK light 1: SYVLTQLPSKNVTLKQPAHITCGGDNIGSKSVHWYQQKLGQAPVLIIYYDSRRPTGIPERFSGANSGNTATLTISGALAEDEADYYCQVWDSSAKAWVFGEGTQLTVLRTVAAPSVFIFPPSDEQLKSGTASVVCLLNNFYPREAKVQWKVDNALQSGNSQESVTEQDSKDSTYSLSSTLTLSKADYEKHKVYACEVTHQGLSSPVTKSFNRGEC heavy 2: not shown light 2: QIVLSQSPAILSASPGEKVTMTCRASSSVSYIHWFQQKPGSSPKPWIYATSNLASGVPVRFSGSGSGTSYSLTISRVEAEDAATYYCQQWTSNPPTFGGGTKLEIKRTVAAPSVFIFPPSDEQLKSGTASVVCLLNNFYPREAKVQWKVDNALQSGNSQESVTEQDSKDSTYSLSSTLTLSKADYEKHKVYACEVTHQGLSSPVTKSFNRGEC	513 nM	1.29e-08 M

More lines, main results first:

Kd [1]	Binder	EC50 (M) of killing potency, bispecific killing of hCD20+GFP MDCK II cells by canine PBMC [2]
62.1 nM	PMX191 in bispecific format (canine CD3 arm PMX191 x Rituximab arm, human IgG4PE knob-in-hole) (bispecific antibody) heavy 1: EVQLVESGGDLVKPAGSLRLSCVASGFTFSDYSMSWVRQGPEKGLQLVAGMNSDGSTTYYTDAVRGRFTISRDNAKNTMYLQMNSLRDEDTAIYYCAKGAAAPDYWGQGTLVTVSSASTKGPSVFPLAPCSRSTSESTAALGCLVKDYFPEPVTVSWNSGALTSGVHTFPAVLQSSGLYSLSSVVTVPSSSLGTKTYTCNVDHKPSNTKVDKRVESKYGPPCPPCPAPEFEGGPSVFLFPPKPKDTLMISRTPEVTCVVVDVSQEDPEVQFNWYVDGVEVHNAKTKPREEQFNSTYRVVSVLTVLHQDWLNGKEYKCKVSNKGLPSSIEKTISKAKGQPREPQVYTLPPSQCEMTKNQVSLSCAVKGFYPSDIAVEWESNGQPENNYKTTPPVLDSDGSFFLVSRLTVDKSRWQEGNVFSCSVMHEALHNRFTQKSLSLSLGK light 1: SYELTQPPSVNVTLRETAHITCGGDRIGSKYVQWIQQIPGQAPVVIIYKDNNRPTGIPERFSGANSGNTATLTISGALAEDEADYYCQVGDNYTWVFGEGTQLTVLRTVAAPSVFIFPPSDEQLKSGTASVVCLLNNFYPREAKVQWKVDNALQSGNSQESVTEQDSKDSTYSLSSTLTLSKADYEKHKVYACEVTHQGLSSPVTKSFNRGEC heavy 2: not shown light 2: QIVLSQSPAILSASPGEKVTMTCRASSSVSYIHWFQQKPGSSPKPWIYATSNLASGVPVRFSGSGSGTSYSLTISRVEAEDAATYYCQQWTSNPPTFGGGTKLEIKRTVAAPSVFIFPPSDEQLKSGTASVVCLLNNFYPREAKVQWKVDNALQSGNSQESVTEQDSKDSTYSLSSTLTLSKADYEKHKVYACEVTHQGLSSPVTKSFNRGEC	9.44e-09 M
999 nM	PMX190 in bispecific format (canine CD3 arm PMX190 x Rituximab arm, human IgG4PE knob-in-hole) (bispecific antibody) heavy 1: EVQLVESGGDLVKPGGSLRLSCVASGFTFSSYQMSWVRQAPGKGLQWVAYISSGGGRTTYADAVRGRLTISRDNAKNTLYLQMNSLRAEDAAVYYCAREGGGEIYGYKDYGMDYWGHGTSLFVSSASTKGPSVFPLAPCSRSTSESTAALGCLVKDYFPEPVTVSWNSGALTSGVHTFPAVLQSSGLYSLSSVVTVPSSSLGTKTYTCNVDHKPSNTKVDKRVESKYGPPCPPCPAPEFEGGPSVFLFPPKPKDTLMISRTPEVTCVVVDVSQEDPEVQFNWYVDGVEVHNAKTKPREEQFNSTYRVVSVLTVLHQDWLNGKEYKCKVSNKGLPSSIEKTISKAKGQPREPQVYTLPPSQCEMTKNQVSLSCAVKGFYPSDIAVEWESNGQPENNYKTTPPVLDSDGSFFLVSRLTVDKSRWQEGNVFSCSVMHEALHNRFTQKSLSLSLGK light 1: SYVLTQLPSKNVTLKQPAHITCGGDNIGSKSVHWYQQKLGQAPVLIIYYDSSRPTGIPERFSGANSGNTATLTISGALAEDEADYYCQVWDSSAKAWVFGEGTQLTVLRTVAAPSVFIFPPSDEQLKSGTASVVCLLNNFYPREAKVQWKVDNALQSGNSQESVTEQDSKDSTYSLSSTLTLSKADYEKHKVYACEVTHQGLSSPVTKSFNRGEC heavy 2: not shown light 2: QIVLSQSPAILSASPGEKVTMTCRASSSVSYIHWFQQKPGSSPKPWIYATSNLASGVPVRFSGSGSGTSYSLTISRVEAEDAATYYCQQWTSNPPTFGGGTKLEIKRTVAAPSVFIFPPSDEQLKSGTASVVCLLNNFYPREAKVQWKVDNALQSGNSQESVTEQDSKDSTYSLSSTLTLSKADYEKHKVYACEVTHQGLSSPVTKSFNRGEC	1e-08 M
517 nM	PMX171 in bispecific format (canine CD3 arm PMX171 x Rituximab arm, human IgG4PE knob-in-hole) (bispecific antibody) heavy 1: EVQLVESGGDLVKPGGSLRLSCEASGFTFSSYHMSWVRQAPGKGLQWVAYINNGGSGTSYADAVKGRFTISRDNAKNTLYLQMNSLRAEDTAVYFCASEGGGKRYGYKDYGMDYWGHGTSLFVSSASTKGPSVFPLAPCSRSTSESTAALGCLVKDYFPEPVTVSWNSGALTSGVHTFPAVLQSSGLYSLSSVVTVPSSSLGTKTYTCNVDHKPSNTKVDKRVESKYGPPCPPCPAPEFEGGPSVFLFPPKPKDTLMISRTPEVTCVVVDVSQEDPEVQFNWYVDGVEVHNAKTKPREEQFNSTYRVVSVLTVLHQDWLNGKEYKCKVSNKGLPSSIEKTISKAKGQPREPQVYTLPPSQCEMTKNQVSLSCAVKGFYPSDIAVEWESNGQPENNYKTTPPVLDSDGSFFLVSRLTVDKSRWQEGNVFSCSVMHEALHNRFTQKSLSLSLGK light 1: SYVLTQLPSKNVTLKQPAHITCGGDNIGSKSVHWYQQKLGQAPVLIIYYDSSRPTGIPERFSGANSGNTATLTISGALAEDEADYYCQVWDSSAKAWVFGEGTQLTVLRTVAAPSVFIFPPSDEQLKSGTASVVCLLNNFYPREAKVQWKVDNALQSGNSQESVTEQDSKDSTYSLSSTLTLSKADYEKHKVYACEVTHQGLSSPVTKSFNRGEC heavy 2: not shown light 2: QIVLSQSPAILSASPGEKVTMTCRASSSVSYIHWFQQKPGSSPKPWIYATSNLASGVPVRFSGSGSGTSYSLTISRVEAEDAATYYCQQWTSNPPTFGGGTKLEIKRTVAAPSVFIFPPSDEQLKSGTASVVCLLNNFYPREAKVQWKVDNALQSGNSQESVTEQDSKDSTYSLSSTLTLSKADYEKHKVYACEVTHQGLSSPVTKSFNRGEC	8.52e-09 M
